Assay [1] concerns the target T1, Hap-1742 (HapY), non-LEC1-type HAP3-like / NF-YB subunit of a CCAAT-box binding factor from Nannochloropsis … (Nannochloropsis gaditana).
T1 construct: also called Nannochloropsis NF-YB polypeptide
T1 chain: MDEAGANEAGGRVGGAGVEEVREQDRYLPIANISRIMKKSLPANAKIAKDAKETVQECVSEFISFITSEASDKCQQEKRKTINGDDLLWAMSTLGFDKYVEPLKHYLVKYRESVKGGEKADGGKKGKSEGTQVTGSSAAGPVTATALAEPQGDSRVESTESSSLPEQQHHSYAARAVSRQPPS
In words: yeast two hybrid screen, Hap-1742 bait against Nannochloropsis cDNA prey library. The protocol:
Based on these numbers, it is estimated that more than 10 million interactions were tested.

Assay [2] deals with T1, Hap-1742 (HapY), non-LEC1-type …. Nature of the assay: yeast two hybrid, NF-YA-1257 prey strain mated with Hap-1742 bait strain.

B1: EUKT6092, Nannochloropsis NF-YC polypeptide (other)
chain: MSGASGNGANPAVQQPYIPTDAEQAEHLQNLIRKLKDFWVEQLAEMETLSLASEQDFKNYIDLPLARIKRIMKSDEDVHMISAEVLVLFAKACEMFILELTIRSWCYSERSKRRTLQREDIQAAIANADILDFLVNIV
notes: Yeast two hybrid prey clone from a cDNA library in pGADT7-rec (Clontech), in yeast strain Y2HGold; also called NF-Y C subunit; HAP5 polypeptide
Take B1: the binding result in assay [1] is “binds”.

B2: NF-YA-1257 (EUKT1257), Nannochloropsis NF-Y subunit A (other)
chain: MDGAETGSGGDSDSGGGRKKIVRPCSSAETSLSMDVTATSYQGTNFNHMLSHGAPASAMVETHDGEGSLCPFPFQPPPHQQHNLQYQQPQEHQMQQTYYGQMNDDGNNFYDHSPHMEGFEPLGAPQEAAGSDLGPQPIFVNPKQYERIMKRREARARLENHRKIAAERKPFLHKSRHLHAVKRPRGPGGRFLTKEERIAWDEEQAQLEGTSTMGAVHVSNEVAAKTLYSSAQASIAAGPPLASQQGSRHASPPFSSPLSSSSCLPPSASTPVAPSGPSSYCSSSPII
notes: The open reading frame was cloned into prey vector pGADT7 (Clontech) and expressed in yeast strain Y2HGold; also called CBF-B/NF-YA
As to B2, in assay [2], the binding result is reported as “binds”.

B3: EUKT1490, Nannochloropsis NF-YC polypeptide (other)
chain: MRLYRQIKKASMSRSPEVLQTSNSALSYASPSQAPSGAAIMMPTAPALPGRSTNTPNTQTGTEERKRDTPEGPKPSPLAGTPASMKAEEAPVSSKKARNAPIPPLSTSNAYVTEDTTLAIPRASIKRIMKLDPDTKQLSQDAIMVMAKATELFIDKLAKASHSMAVTNKRKTIKYEDIADARFSQKNMEFLDGVVPQIP
notes: as for B1
In the case of B3, the binding result in assay [1] was “binds”.

The values above are taken from patent publication US20150191515A1 (SYNTHETIC GENOMICS, published 2015).
